“And” between values parts separate entries of the source, which are not always exact repeats. Equal values may be shown once.
Legend:
[1] = Viscosity of aerosol preparation (Ostwald viscosimeter); assay type: physicochemical; conditions: aerosol preparation with about 35 mg/mL of insulin, pH 7.4
Experimental: Higher viscosity solutions of macromolecules with a viscosity of up to 1100×10^−6 Pa·s are preferred. With such solutions, an inhalable proportion of droplets containing an active substance of about 60% is obtained. The limiting viscosity numbers given were detected using an Ostwald viscosimeter using the method known from the literature. For comparison, the viscosity of water is 894×10^−6 Pa·s (measured at 25° C.).
The aerosol preparation thus produced has a concentration of about 35 mg/mL of insulin, the viscosity of the solution being about 1020×10^−6 Pa·s.

blood glucose level = experiment: In vivo test in dog: blood glucose after inhaled highly concentrated insulin solution from RESPIMAT; conditions: anesthetized dog; six puffs of highly concentrated insulin solution from RESPIMAT; FIG. 5
Experimental: The insulin was administered to the dog anesthetized with pentobarbital after previously receiving basic sedation. The animal was intubated and ventilated as before. A total of six puffs of insulin solution were delivered from the RESPIMAT® device. Each puff was administered at the start of an inward breath. Between the breathing in phase and the breathing out phase there was a gap of 5 seconds. Before the next administration of insulin, two breath cycles were left with no intervention. Blood was taken one hour before administration, at the same time as administration and at various times thereafter over […]. The blood glucose level was measured in the fresh blood using the method of Trasch, Koller, and Tritscher (Klein. Chem. 30; 969 [1984]) using a REFLETRON® device made by Boehringer Mannheim.

[2] = In vitro RESPIMAT nebulization, trap recovery of interferon omega by ELISA
Text: (§1) The effectiveness of a nebulizer can be tested using an in vitro system in which a protein solution is nebulized and the spray mist is caught in a so-called “trap” (see FIG. 1). The activity of the protein in the aerosol reservoir (a) is compared with its activity in the trapped liquid (b), e.g., by means of an immunoassay or using an assay for the biological effectiveness of the protein. This experiment makes it possible to evaluate the degree of destruction of the protein by the nebulizing process. A second parameter of the aerosol quality is the so-called inhalable proportion, which is defined here as the proportion of the mist droplets with a […] median aerodynamic diameter (MMAD) of less than 5.8 μm. The inhalable proportion can be measured using an “Andersen Impactor”. For good protein absorption it is important not only to achieve nebulization without any substantial loss of activity but also to generate an aerosol with a good inhalable proportion (about 60%). […] The effectiveness of a nebulization device can also be tested in an in vivo system; in this case factors such as susceptibility to lung proteases come into play. […] Blood samples arc taken at suitable time intervals and the protein level in the plasma is then measured by immunological or biological methods.
(§2) The device was activated and a volume of about 12.9 μL, (one puff) was nebulized in an air current of 28 l/min. […] Interferon omega was measured in the reservoir solution and in the solution caught in the trap by immunological methods, using an ELISA, and biologically, by inhibiting the destruction of encephalo-myocarditis virus infected A549 cells. […] However, additional biological measurements are very important as they are a particularly sensitive and therapeutically relevant method of quantifying protein destruction.
(§3) In three experiments, 84%, 77%, and 98%, of the immunologically identifiable interferon, based on the starting solution, were found in the trap solution (b). […] The proportion of particles less than 5.8 μm in size (“inhalable proportion”) was measured. […]

[3] = system: encephalo-myocarditis virus infected A549 cells; experiment: In vitro RESPIMAT nebulization, trap recovery of interferon omega by biological assay (inhibiting destruction of virus-infected cells); assay type: cell-based; conditions: same solutions
Text: as §1, §2, §3

[4] = Inhalable proportion of RESPIMAT spray mist in Andersen impactor; assay type: physicochemical; conditions: immunological measurements
Text: as §1, §3
In this experiment, the reservoir (a) of the RESPIMAT® device was filled with 3.3 mg/mL of manganese superoxide dismutase (MnSOD) in phosphate-buffered saline (PBS). […] The precise amount nebulized was determined gravimetrically (measurements in three succeeding tests: 12.8, 13.7, and 14.3 mg). […] MnSOD was determined in the reservoir solution and in the solution caught in the trap, immunologically using an ELISA and enzymatically by the reduction in the quantity of superoxide after a xanthine/xanthine oxidase reaction. […]

neopterin = experiment: In vivo test in dog: serum neopterin after interferon omega by RESPIMAT inhalation vs intravenous
Experimental: Interferon omega was administered by inhalation and intravenous route in separate experiments on the same dog. The blood levels of interferon were measured immunologically and biologically at different times. In addition, the neopterin level in the blood was measured. Neopterin is a marker for immune activation; it is released by macrophages after interferon stimulation [see Fuchs et al., “Neopterin, Biochemistry and Clinical Use as a Marker For Cellular Immune Reactions”, Int. Arch. Allergy Appl. Immunol. 101: 1-6 (1993)]. Measurement of the neopterin level serves to quantify interferon activity.
The administration of interferon to the dog was carried out under pentobarbital anesthetic after previous basic sedation. The animal was intubated and subjected to artificial ventilation (volume-controlled respiration: volume per minute 4 L/min, rate 10 breaths/min). A total of 20 puffs were delivered by the RESPIMAT® device. Each puff was given at the start of an inward breath. After the breathing in phase there were five seconds gap before breathing out. […] Interferon omega was measured in heparin plasma by immunological methods using an ELISA and by biological methods by the inhibition of the destruction of encephalo-myocarditis virus infected A549 cells. Serum neopterin was determined by immunology. […]

[5] = In vitro RESPIMAT nebulization, trap recovery of MnSOD by ELISA; conditions: 3.3 mg/mL MnSOD in PBS, one puff, 28 L/min, three tests
Text: The effectiveness of a nebulizer can be tested using an in vitro system in which a protein solution is nebulized and the spray mist is caught in a so-called “trap” (see FIG. 1). The activity of the protein in the aerosol reservoir (a) is compared with its activity in the trapped liquid (b), e.g., by means of an immunoassay or using an assay for the biological effectiveness of the protein. This experiment makes it possible to evaluate the degree of destruction of the protein by the nebulizing process. A second parameter of the aerosol quality is the so-called inhalable proportion, which is defined here as the proportion of the mist droplets with a […] median aerodynamic diameter (MMAD) of less than 5.8 μm. The inhalable proportion can be measured using an “Andersen Impactor”. […] Blood samples arc taken at suitable time intervals and the protein level in the plasma is then measured by immunological or biological methods.
In this experiment, the reservoir (a) of the RESPIMAT® device was filled with 3.3 mg/mL of manganese superoxide dismutase (MnSOD) in phosphate-buffered saline (PBS). […] The precise amount nebulized was determined gravimetrically (measurements in three succeeding tests: 12.8, 13.7, and 14.3 mg). […] In three tests, 78%, 89%, and 83% of the immunologically identifiable MnSOD of the nebulized solution were measured in the trapped solution (b). […]

[6] = In vitro RESPIMAT nebulization, MnSOD enzymatic activity (reduction of superoxide after xanthine/xanthine oxidase reaction); assay type: biochemical; conditions: 3.3 mg/mL MnSOD in PBS
Experimental: In this experiment, the reservoir (a) of the RESPIMAT® device was filled with 3.3 mg/mL of manganese superoxide dismutase (MnSOD) in phosphate-buffered saline (PBS). The device was operated and a volume of about 13 μL (one puff) was nebulized in an air current of 28 L/min. The precise amount nebulized was determined gravimetrically (measurements in three succeeding tests: 12.8, 13.7, and 14.3 mg). The nebulized solution was caught in a trap (b). This trap contained 20 mL of PBS. In addition, 2 mL of 5% bovine serum albumin was added to stabilize proteins in the trap. MnSOD was determined in the reservoir solution and in the solution caught in the trap, immunologically using an ELISA and enzymatically by the reduction in the quantity of superoxide after a xanthine/xanthine oxidase reaction. In three tests, 78%, 89%, and 83% of the immunologically identifiable MnSOD of the nebulized solution were measured in the trapped solution (b). […] The inhalable proportion (immunological measurements) was 61%.

[7] = concentrated interferon omega solution 53 mg/mL, four tests

With insulin the “viscosity of the solution” value [1] was “about 1020 ×10^−6 Pa·s” and the “blood glucose level after administration of insulin by inhalation” value (blood glucose level) was “lowering of blood glucose level”.

In the case of interferon omega, the “immunologically identifiable interferon found in the trap solution, based on the starting solution” value ([2]; 5 mg/mL formulation with additional human serum albumin (0.5%), three tests) is reported as 79% and 83%, the “immunologically identifiable interferon found in the trap solution, based on the starting solution” value ([2]; 5 mg/mL interferon omega in 50 mM trisodium citrate, 150 mM NaCl, pH 5.5, one puff, air current 28 l/min, ELISA, three experiments) is reported as 84% and 77% and 98% and the “immunologically identifiable interferon found in the trapped solution, based on the starting solution” value [2, 7] is reported as 100% and 60% and 68% and 72%. For the same molecule, the “biologically active interferon in the trapped solution” value ([3]; 5 mg/mL formulation with additional human serum albumin (0.5%)) was 60% and 54% and 66%, the “recovery of the biologically identifiable interferon in the trapped solution” value ([3]; 5 mg/mL interferon omega in 50 mM trisodium citrate, 150 mM NaCl, pH 5.5, three experiments) was 54% and 47% and 81% and the “recovery of the biologically identifiable interferon in the trapped solution” value [3, 7] was 95% and 98% and 61% and 83%. The “inhalable proportion (particles less than 5.8 μm)” value ([4]; 5 mg/mL interferon omega solution, Andersen impactor, 28 l/min) was 70%, the inhalable proportion ([4]; interferon omega formulation with additional human serum albumin (0.5%)) was 67% and the “neopterin levels after inhalation compared with intravenous administration of 0.32 mg of interferon” value (neopterin; 20 puffs RESPIMAT, 5 mg/mL (about 1.28 mg) vs 0.32 mg i.v., FIG. 3) was “significantly higher and longer lasting levels”. For the same molecule, the “serum neopterin level after administration by inhalation” value (neopterin; 20 puffs from RESPIMAT, 5 mg/mL solution (about 1.28 mg)) was “very high serum neopterin level”.

B1: manganese superoxide dismutase (protein, UniProt P04179 25-222, looked up)
Superoxide dismutase [Mn], …: KHSLPDLPYDYGALEPHINAQIMQLHHSKHHAAYVNNLNVTEEKYQEALAKGDVTAQIALQPALKFNGGGHINHSIFWTNLSPNGGGEPKGELLEAIKRDFGSFDKFKEKLTAASVGVQGSGWGWLGFNKERGHLQIAACPNQDPLQGTTGLIPLLGIDVWEHAYYLQYKNVRPDYLKAIWNVINWENVTERYMACKK
notes: 3.3 mg/mL of manganese superoxide dismutase (MnSOD) in phosphate-buffered saline
With B1 the inhalable proportion ([4]; 3.3 mg/mL MnSOD in PBS) was 61%, the “immunologically identifiable MnSOD of the nebulized solution measured in the trapped solution” value [5] was 78% and 89% and 83% and the “loss in enzymatic activity after nebulization” value [6] was “no measurable loss”.
